In the supplement of paper PMC7877785:
± gives the uncertainty stated by the source.

Experiment: self-splicing fitness, log relative to wild type (ln ratio); higher = more splicing; Tetrahymena group I intron in knt gene, E. coli kanamycin selection, DiMSum; sequences stand for … in CUCUCU…GGAGGGAAAAGUUAUCAGGCAUGCACCUGGUAGCUAGUCUUUAAACCAAUAGAUUGCAUCGGUUUAAAAGGCAAGACCGUCAAAUUGCGGGAAAGGGGUCAACAGCCGUUCAGUACCAAGUCUCAGGGGAAACUUUGAGAUGGCCUUGCAAAGGGUAUGGUAAUAAGCUGACGGACAUGGUCCUAACCACGCAGCCAAGUCCUAAGUCAACAGAUCUUCUGUUGAUAUGGAUGCAGUUCACAGACUAAAUGUCGGUCGGGGAAGAUGUAUUCUUCUCAUAAGAUAUAGUCGGACCUCUCCUUAAUGGGAGCUAGCGGAUGAAGUGAUGCAACACUGGAGCCGCUGGGAACUAAUUUGUAUGCGAAAGUAUAUUGAUUAGUUUUGGAGUACUCGUGGUCG
How it was run: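 Colonies from six replicate transformations of E. coli BL21(DE3) were pooled and amplicon-sequenced on an Illumina HiSeq 2500. The library placed an intron with all eight P1ex-region nucleotides randomised inside the knt kanamycin-resistance gene on pET-22b(+), and cells grew overnight at 37°C or 30°C on LB agar with or without 25 μg/mL kanamycin (plus 100 μg/mL carbenicillin, 50 μM IPTG, 0.2% rhamnose). Fitness is the DiMSum error-weighted combination of wild-type-normalised replicate fold changes, kanamycin versus none.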

Row | Sequence | self-splicing fitness (ln) (30 °C) | self-splicing fitness (ln) (37 °C)
1 | UAAAAGCAAUAUUACGACCC | -1.73 ± 0.28 | 0.481 ± 0.33
2 | AUACAGCAAUAUUACGCGUU | -3.01 ± 0.14 | -0.461 ± 0.099
3 | UGCUAGCAAUAUUACGGGUA | -0.992 ± 0.14 | -0.151 ± 0.12
4 | AGUUAGCAAUAUUACGCCGG | -2.98 ± 0.34 | -2.26 ± 0.39
5 | AAAAAGCAAUAUUACGAUAU | -0.534 ± 0.061 | -0.545 ± 0.079
6 | ACAAAGCAAUAUUACGUAGU | -2.57 ± 0.085 | -1.43 ± 0.095
7 | UGUCAGCAAUAUUACGAUGU | -1.36 ± 0.073 | -0.317 ± 0.093
8 | GCGCAGCAAUAUUACGGGGC | -3.33 ± 0.18 | -2.75 ± 0.38
9 | AUGCAGCAAUAUUACGGGGA | -2.64 ± 0.16 | -2.26 ± 0.18
10 | UCAAAGCAAUAUUACGGGCU | -2.34 ± 0.11 | -2.55 ± 0.14
11 | UGAAAGCAAUAUUACGUUCU | -1.37 ± 0.11 | -0.484 ± 0.1
12 | GUUGAGCAAUAUUACGAUGC | -2.24 ± 0.49 | -2.24 ± 0.45
13 | UAUUAGCAAUAUUACGUUGA | -3.32 ± 0.29 | -2.17 ± 0.23
14 | CCUCAGCAAUAUUACGACAU | -3.84 ± 0.024 | -2.84 ± 0.039
15 | ACAAAGCAAUAUUACGAGUC | -4.66 ± 0.25 | -2.95 ± 0.23
16 | CAUGAGCAAUAUUACGGAAC | -3.01 ± 0.33 | -2.65 ± 0.35
17 | CUUGAGCAAUAUUACGCCAA | -3.52 ± 0.25 | -2.09 ± 0.32
18 | CAAAAGCAAUAUUACGGUCG | 0.0608 ± 0.056 | -0.107 ± 0.063
19 | ACCUAGCAAUAUUACGCCUC | -1.88 ± 0.13 | -1.51 ± 0.15

Row | Sequence | self-splicing fitness (ln) (30 °C) | self-splicing fitness (ln) (37 °C)
20 | UGCCAGCAAUAUUACGGUGU | -2.53 ± 0.11 | -2.7 ± 0.19
21 | GUGGAGCAAUAUUACGUUAC | -2.99 ± 0.24 | -2.5 ± 0.3
22 | UAAAAGCAAUAUUACGUUAA | -2.14 ± 0.15 | -1.38 ± 0.13
23 | UCUCAGCAAUAUUACGGUAA | -2.11 ± 0.14 | -1.02 ± 0.12
24 | GCACAGCAAUAUUACGGCAG | -3.39 ± 0.2 | -1.4 ± 0.16
25 | AGCGAGCAAUAUUACGCUAG | -3.66 ± 0.29 | -2.04 ± 0.27
26 | AUACAGCAAUAUUACGCAAC | -2.13 ± 0.16 | -1.49 ± 0.15
27 | GGUGAGCAAUAUUACGUAGG | -3.15 ± 0.27 | -2.07 ± 0.32
28 | GAUCAGCAAUAUUACGCGCA | 0.225 ± 0.092 | -0.0411 ± 0.1
29 | UGGCAGCAAUAUUACGGGUG | -0.883 ± 0.071 | -0.596 ± 0.088
30 | GUCAAGCAAUAUUACGGUUG | -5.24 ± 0.39 | -3.24 ± 0.21
31 | CCAAAGCAAUAUUACGUAAA | -3.24 ± 0.11 | -2.07 ± 0.14
32 | GCCAAGCAAUAUUACGAUUU | -2.95 ± 0.096 | -1.15 ± 0.09
33 | GAUGAGCAAUAUUACGCGGA | -2.72 ± 0.12 | -2.15 ± 0.11
34 | UUGAAGCAAUAUUACGCAGG | -1.15 ± 0.092 | -0.283 ± 0.098
35 | GAACAGCAAUAUUACGAGGA | -2.14 ± 0.11 | -1.53 ± 0.14
36 | GCCCAGCAAUAUUACGCUGG | -2.86 ± 0.15 | -3.32 ± 0.28
37 | CUUAAGCAAUAUUACGUGGA | -3.7 ± 0.18 | -3.42 ± 0.16
